B1: Serine/threonine-protein kinase Nek2 (Homo sapiens), P51955 (parent)
chain: MPSRAEDYEVLYTIGTGSYGRCQKIRRKSDGKILVWKELDYGSMTEAEKQMLVSEVNLLRELKHPNIVRYYDRIIDRTNTTLYIVMEYCEGGDLASVITKGTKERQYLDEEFVLRVMTQLTLALKECHRRSDGGHTVLHRDLKPANVFLDGKQNVKLGDFGLARILNHDTSFAKTFVGTPYYMSPEQMNRMSYNEKSDIWSLGCLLYELCALMPPFTAFSQKELAGKIREGKFRRIPYRYSDELNEIITRMLNLKDYHRPSVEEILENPLIADLVADEQRRNLERRGRQLGEPEKSQDSSPVLSELKLKEIQLQERERALKAREERLEQKEQELCVRERLAEDKLARAENLLKNYSLLKERKFLSLASNPELLNLPSSVIKKKVHFSGESKENIMRSENSESQLTSKSKCKDLKKRLHAAQLRAQALSDIEKNYQLKSRQILGMR

Variants of: B1
Settings: with apc4_human ANAPC4, Q9UJX5
Sequence of apc4_human ANAPC4, Q9UJX5 (Q9UJX5 whole entry): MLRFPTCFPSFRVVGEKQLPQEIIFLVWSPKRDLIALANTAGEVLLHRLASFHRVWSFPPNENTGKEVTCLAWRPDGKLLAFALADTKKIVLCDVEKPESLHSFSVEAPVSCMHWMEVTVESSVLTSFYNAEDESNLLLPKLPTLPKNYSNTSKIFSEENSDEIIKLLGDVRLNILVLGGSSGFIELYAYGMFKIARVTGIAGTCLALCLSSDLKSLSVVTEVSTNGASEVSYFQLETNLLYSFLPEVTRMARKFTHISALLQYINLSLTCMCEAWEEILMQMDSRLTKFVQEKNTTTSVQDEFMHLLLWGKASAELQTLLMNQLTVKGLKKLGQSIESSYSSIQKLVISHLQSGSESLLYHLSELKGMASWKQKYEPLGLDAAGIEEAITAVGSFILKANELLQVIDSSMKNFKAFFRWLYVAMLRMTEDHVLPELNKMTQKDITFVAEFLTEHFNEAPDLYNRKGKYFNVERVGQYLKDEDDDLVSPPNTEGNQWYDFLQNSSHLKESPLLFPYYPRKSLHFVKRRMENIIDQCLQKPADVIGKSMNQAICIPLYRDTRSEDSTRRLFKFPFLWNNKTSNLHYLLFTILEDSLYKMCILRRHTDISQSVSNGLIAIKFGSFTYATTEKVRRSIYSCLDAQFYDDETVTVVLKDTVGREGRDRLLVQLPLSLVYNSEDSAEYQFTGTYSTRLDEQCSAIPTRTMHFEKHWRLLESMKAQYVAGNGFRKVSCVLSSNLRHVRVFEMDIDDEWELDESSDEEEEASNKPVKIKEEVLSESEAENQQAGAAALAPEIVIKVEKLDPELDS

| effect of a mutation on the interaction | Variant |
| --- | --- |
| decreasing interaction | L320A |
| decreasing interaction | L313A |
